B1: SAM and SH3 domain-containing protein 1, residues 630 to 700; numbered along this chain, O94885 (parent)
chain: GRPPQPKSVEDLLDRINLKEHMPTFLFNGYEDLDTFKLLEEEDLDELNIRDPEHRAVLLTAVELLQEYDSN

± gives the uncertainty stated by the source.

In the series the parent is B1. As to the kind of experiment: abundance fitness (aPCA) (normalised: wild type 0, dead -1); higher = more abundant; growth selection in yeast, the domain comes from the species named. The note with it: Homo sapiens.
As to GRPPQPKSVEDQLDRINLKEHMPTFLFNGYEDLDTFKLLEEEDLDELNIRDPEHRAVLLTAVELLQEYDSN, the abundance fitness is -0.679 ± 0.077.

On to GRPPQPKSVEDLLDRINLKEHMPTFLFNGYEDLDTFKLLEEYDLDELNIRDPEHRAVLLTAVELLQEYDSN, for which the abundance fitness was -0.539 ± 0.056.

For GRPRQPKSVEDLLDRINLKEHMPTFLFNGYEDLDTFKLLEEEDLDELNIRDPEHRAVLLTAVELLQEYDSN, the abundance fitness was -0.198 ± 0.057.

Turning to GRPPQPKSVEDLLDRINLKEHMPTFLFNGYEDLDTFKLLNEEDLDELNIRDPEHRAVLLTAVELLQEYDSN, the abundance fitness was determined as 0.196 ± 0.041.

With GRPPQPKSVEDLLDRINLKEHMPTFLFNGYEDLDTFKLLEEEDLDELNQRDPEHRAVLLTAVELLQEYDSN, the abundance fitness is -0.92 ± 0.083.

As for GRPPQPKSVEDLLDRINLVEHMPTFLFNGYEDLDTFKLLEEEDLDELNIRDPEHRAVLLTAVELLQEYDSN, the abundance fitness is -0.293 ± 0.042.

Take GRPPQPKSVEDLLDRINLEEHMPTFLFNGYEDLDTFKLLEEEDLDELNIRDPEHRAVLLTAVELLQEYDSN: the abundance fitness is -0.434 ± 0.073.

In the case of GRPPQPKSVEDLLDRINLKEHMPTFLFNGYEDLDTFKLLEEEDLDELNIRDPEHRMVLLTAVELLQEYDSN, the abundance fitness is -0.213 ± 0.046.

On to GRPPQPKSVEDLLDRINLKEHMPTFLFEGYEDLDTFKLLEEEDLDELNIRDPEHRAVLLTAVELLQEYDSN, for which the abundance fitness is -0.647 ± 0.098.

Consider GRPPQPKSVEDLLDRINLKEHMPTFLFVGYEDLDTFKLLEEEDLDELNIRDPEHRAVLLTAVELLQEYDSN, for which the abundance fitness was -0.939 ± 0.076.

GRPPQPKSVEDLLDRINLKEPMPTFLFNGYEDLDTFKLLEEEDLDELNIRDPEHRAVLLTAVELLQEYDSN: the abundance fitness is -0.798 ± 0.065.

Regarding GRPPQPKSVEDLLDRINLKEHMPTFLFNGYEDLDTFKLLEEEDLDELNIRDPEHRAVLLIAVELLQEYDSN, the abundance fitness was -0.927 ± 0.082.

Turning to GRPPQPKSVEDLLDRINLKEHMPTFLFNGYEDLDTFKLLEEEDLDELNIRDPEHRAVLLPAVELLQEYDSN, the abundance fitness is -0.63 ± 0.064.

For GRPPQPKSVEDLLDRINLKEHMPTFLFNGYEDLDTFKLLEEEDLDELNIRDPEHRAFLLTAVELLQEYDSN, the abundance fitness is -0.747 ± 0.077.

With GRPPQPKSVEDLLDRINLKEHMPTFLFNGYEDLDTFKLLEEEDLDELNIRDPEHRAQLLTAVELLQEYDSN, the abundance fitness is 0.251 ± 0.041.

Regarding GRPPQPKSVEDLLDRINLKEHMPTFLFNGYEDLDTFKLLEEEDLDELNIRDPEHRAILLTAVELLQEYDSN, the abundance fitness is -0.059 ± 0.048.

As for GRPPQPKSVEDLLDRINLKEHMPTFLFNGYEDLDTFKLLEEEDLDELNIRDPEHRAVLLTAVEPLQEYDSN, the abundance fitness was -0.595 ± 0.057.

Take GRPPQPKSVEDLLDRINPKEHMPTFLFNGYEDLDTFKLLEEEDLDELNIRDPEHRAVLLTAVELLQEYDSN: the abundance fitness was -0.996 ± 0.085.

Consider GRPPQPKSVEDLLDRINLKDHMPTFLFNGYEDLDTFKLLEEEDLDELNIRDPEHRAVLLTAVELLQEYDSN, for which the abundance fitness was -0.498 ± 0.11.

In the case of GRPPQPKSVEDLLDRINLKEHMPTFLFNGMEDLDTFKLLEEEDLDELNIRDPEHRAVLLTAVELLQEYDSN, the abundance fitness is -0.568 ± 0.074.

With GRPPQPKSVEDLLDRINLKEHMPTFLFNGFEDLDTFKLLEEEDLDELNIRDPEHRAVLLTAVELLQEYDSN, the abundance fitness amounted to 0.058 ± 0.044.

GRPPQPKSVEDLLDRINLKEHMPTFLFNGIEDLDTFKLLEEEDLDELNIRDPEHRAVLLTAVELLQEYDSN: the abundance fitness was 0.042 ± 0.043.

As to GRPPQPKSVEDLLDRINLKEHMPTFLFNGYEDLDTFKLLEEEDLDELNIRDPEHRAVLITAVELLQEYDSN, the abundance fitness was -0.525 ± 0.064.

Regarding GRPPQPKSVEDLLDRINLKEHMPTFLFNGYEDLDTHKLLEEEDLDELNIRDPEHRAVLLTAVELLQEYDSN, the abundance fitness was -0.638 ± 0.081.

Take GRPPQPKSVEDLLDRINLKEHMPTFLFNGYEDLDTCKLLEEEDLDELNIRDPEHRAVLLTAVELLQEYDSN: the abundance fitness was -0.849 ± 0.087.

For the variant GRPPQPKSVEDLLDRINLKEHMPTFLFNGYEDLDTRKLLEEEDLDELNIRDPEHRAVLLTAVELLQEYDSN, the abundance fitness was -0.794 ± 0.058.

For GRPPQPKSVEDLLDRINLKEHMPTFLFNGYEDLDTFKLLEEEDLFELNIRDPEHRAVLLTAVELLQEYDSN, the abundance fitness was -0.48 ± 0.049.

GRPPQPKSVEDLLDRINLKEHMPTFLFNGYEDLDTFKLLEEEDLRELNIRDPEHRAVLLTAVELLQEYDSN: the abundance fitness was -0.415 ± 0.043.

Consider GRPPQPKSVEDLLDRINLKEHMPTFLFNGYQDLDTFKLLEEEDLDELNIRDPEHRAVLLTAVELLQEYDSN, for which the abundance fitness worked out at 0.029 ± 0.044.

GRPPQPKSVEDLLDRINLKEHMPTFLFNGYYDLDTFKLLEEEDLDELNIRDPEHRAVLLTAVELLQEYDSN: the abundance fitness is -0.124 ± 0.042.

In the case of GLPPQPKSVEDLLDRINLKEHMPTFLFNGYEDLDTFKLLEEEDLDELNIRDPEHRAVLLTAVELLQEYDSN, the abundance fitness is -0.246 ± 0.054.

Regarding GAPPQPKSVEDLLDRINLKEHMPTFLFNGYEDLDTFKLLEEEDLDELNIRDPEHRAVLLTAVELLQEYDSN, the abundance fitness is -0.489 ± 0.072.

With GRPPQPKSVEDLLDRINLKEHMPTFLFNGYEDLDTFKLLEEEDSDELNIRDPEHRAVLLTAVELLQEYDSN, the abundance fitness was -0.875 ± 0.062.

Regarding GRPPQPKSVEDLLDRINLKEHMPTFLFNGYEDLDTFKLLEDEDLDELNIRDPEHRAVLLTAVELLQEYDSN, the abundance fitness is -0.419 ± 0.075.

Take GRPPQPKSVEDLWDRINLKEHMPTFLFNGYEDLDTFKLLEEEDLDELNIRDPEHRAVLLTAVELLQEYDSN: the abundance fitness is -0.99 ± 0.095.

With GRPPQPKSVEDLKDRINLKEHMPTFLFNGYEDLDTFKLLEEEDLDELNIRDPEHRAVLLTAVELLQEYDSN, the abundance fitness is -0.715 ± 0.08.

In the case of GRPPQPKSVEDLLDRINLKEHMPTWLFNGYEDLDTFKLLEEEDLDELNIRDPEHRAVLLTAVELLQEYDSN, the abundance fitness was -0.891 ± 0.088.

As to GRPPQPKSVEDLLDRINLKEHMPTFLFNGYEDLDTFKLDEEEDLDELNIRDPEHRAVLLTAVELLQEYDSN, the abundance fitness was -0.799 ± 0.081.
